# Source: article PMC8591604, “Targeting Oncogenic Src Homology 2 Domain-Containing Phosphatase 2 (SHP2) by Inhibiting Its Protein–Protein Interactions” (Journal of Medicinal Chemistry, 2021)
# Read-outs that look alike come from different tables or passages of the source.
# Experiments:
# [1] = biological target: N-SH2 domain of SHP2 (residues 2–111) (human) (UniProt Q06124)
# [2] = biological target: N-SH2 domain of SHP2 (residues 2–111) (human) (UniProt Q06124); assay: fluorescence polarisation; fluorescence anisotropy, displacement: 0.10 nM CF-P9W5 (0.5 nM for P8 and OP) with […] N-SH2 titrated with unlabelled peptide; fluorescence buffer
# [3] = biological target: N-SH2 domain of SHP2 (residues 2–111) (human) (UniProt Q06124); remark: listed apart in the source
substance,measurement,setting,value
"CF-P9, fluorescently labeled IRS-1 pY1172 analogue (nine residues) (peptide)",Kd,[1],53 nM
"P8W5, P8 analogue with W at position +5 (peptide)",Kd,[2],1.6 nM
"CF-P9Y0, unphosphorylated analogue of the labeled IRS-1 pY1172 peptide",Kd,[3],6600 nM
